Results as given in paper PMC4143144.

Target: amino-terminal hexahistidine-tagged EttA-EQ2 (E. coli) (UniProt P0A9W3)
Assay: pull-down

stoichiometry N (EttA-EQ2:70S ribosome): 1
Substance: E. coli 70S ribosome (from UniProt P0A7L0 1-234; P62399 1-179; P0A7N9 1-55; P02359 1-179; P0A7R1 1-149) (complex)
